Source: patent US20230265179A1 (TWIST BIOSCIENCE, published 2023)
Substitutions are numbered along the chain they refer to.

T1: IL1RL1 over-expressed on Expi293 cells (UniProt Q01638 19-556, limits assumed)
T1 construct: whole, on cells; Target of the flow cytometry MFI ratio (over-expressing cells over parent cells); also called cytokine over-expressing Expi293 cells
T1 sequence (looked up): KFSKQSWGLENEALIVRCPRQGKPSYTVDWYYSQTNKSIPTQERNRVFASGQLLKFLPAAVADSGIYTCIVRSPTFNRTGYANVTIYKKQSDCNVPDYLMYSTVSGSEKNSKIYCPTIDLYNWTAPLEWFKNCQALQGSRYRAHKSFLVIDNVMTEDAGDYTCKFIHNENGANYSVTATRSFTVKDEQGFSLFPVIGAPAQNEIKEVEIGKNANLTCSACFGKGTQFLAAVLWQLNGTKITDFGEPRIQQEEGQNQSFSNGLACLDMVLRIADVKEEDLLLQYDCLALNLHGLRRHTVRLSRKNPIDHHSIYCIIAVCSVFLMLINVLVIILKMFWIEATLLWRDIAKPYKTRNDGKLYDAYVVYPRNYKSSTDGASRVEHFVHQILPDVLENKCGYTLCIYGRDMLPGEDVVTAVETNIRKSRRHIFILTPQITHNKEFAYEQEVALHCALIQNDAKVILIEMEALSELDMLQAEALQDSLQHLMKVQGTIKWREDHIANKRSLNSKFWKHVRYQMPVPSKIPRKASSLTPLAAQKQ

T2: IL1RL1 (UniProt Q01638 19-328, limits assumed)
T2 construct: SPR analyte
T2 sequence (looked up): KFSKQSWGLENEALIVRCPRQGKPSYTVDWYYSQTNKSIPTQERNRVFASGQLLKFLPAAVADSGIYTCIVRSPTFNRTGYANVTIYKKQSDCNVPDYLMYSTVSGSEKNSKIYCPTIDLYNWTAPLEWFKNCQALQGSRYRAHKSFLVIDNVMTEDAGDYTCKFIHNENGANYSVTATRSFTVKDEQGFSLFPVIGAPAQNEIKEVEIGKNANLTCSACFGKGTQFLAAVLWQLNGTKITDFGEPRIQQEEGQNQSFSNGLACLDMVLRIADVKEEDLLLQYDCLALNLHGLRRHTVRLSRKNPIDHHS

B1: IL1RL1-221 (antibody, V domains shown)
VH: EVQLLESGGGLVQPGGSLRLSCAASGFTFPKYDMMWVRQAPGKGLEWVSSIRGSSSSTYYADSVKGRFTISRDNSKNTLYLQMNSLRAEDTAVYYCARAGRILFDYWGQGTLVTVSS
VL: DIQMTQSPSSLSASVGDRVTITCRASQTIERRLNWYQQKPGKAPKLLIYGRNKRPSGVPSRFSGSGSGTDFTLTISSLQPEDFATYYCGQSYRYPLTFGQGTKVEIK
notes: IgG2
B2: IL1RL1-269 (antibody, V domains shown)
VH: EVQLLESGGGLVQPGGSLRLSCAASGFTFDRYRMMWVRQAPGKGLEWVSAITGSGGSTYYADSVKGRFTISRDNSKNTLYLQMNSLRAEDTAVYYCAKGLRRFDYWGQGTLVTVSS
VL: B1 VL with T28S, I29V, E30D, R32Y, L33F, R51K, K53I
notes: IgG2
B3: IL1RL1-239 (antibody, V domains shown)
VH: EVQLLESGGGLVQPGGSLRLSCAASGFTFRRYVMGWVRQAPGKGLEWVSSISGSSGTTYYADSVKGRFTISRDNSKNTLYLQMNSLRAEDTAVYYCAKAYYGGFDYWGQGTLVTVSS
VL: DIQMTQSPSSLSASVGDRVTITCSASSSVSSSYLHWYQQKPGKAPKLLIYRKSNRPSGVPSRFSGSGSGTDFTLTISSLQPEDFATYYCQQSYSTPTFGQGTKVEIK
notes: IgG2
B4: IL1RL1-1 (Fc fusion, not shown: a dimerising Fc or GST)
VHH: EVQLVESGGGLVQPGGSLRLSCAASGFTLDAWPMSWFRQAPGKEREVVAVIYTSDGSTYYADSVKGRFTISADNSKNTAYLQMNSLKPEDTAVYYCAASKWYGGFGDTDIEWGQGTLVTVSS
notes: VHH-Fc on IgG2 Fc
B5: IL1RL1-192 (antibody, V domains shown)
VH: EVQLLESGGGLVQPGGSLRLSCAASGFTFGNYAMAWVRQAPGKGLEWVSGITRSGSTNYRDSVKGRFTISRDNSKNTLYLQMNSLRAEDTAVYYCARDRYFRQQNAFDYWGQGTLVTVSS
VL: DIQMTQSPSSLSASVGDRVTITCQASQSISSYLAWYQQKPGKAPKLLIYGRNKRPSGVPSRFSGSGSGTDFTLTISSLQPEDFATYYCAQTGTHPTTFGQGTKVEIK
notes: IgG2
B6: IL1RL1-79 (Fc fusion, not shown: a dimerising Fc or GST)
VHH: EVQLVESGGGLVQPGGSLRLSCAASGRTFSMGWFRQAPGKEREAVASISWSGGSAFYADSVKGRFTISADNSKNTAYLQMNSLKPEDTAVYYCAAIGGGAVWGQGTLVTVSS
notes: VHH-Fc on IgG2 Fc
B7: IL1RL1-193 (antibody, V domains shown)
VH: EVQLLESGGGLVQPGGSLRLSCAASGFTFAKYKMWWVRQAPGKGLEWVSGITRSGSTNYRDSVKGRFTISRDNSKNTLYLQMNSLRAEDTAVYYCASLSRGYWGQGTLVTVSS
VL: DIQMTQSPSSLSASVGDRVTITCKASDHIGKFLTWYQQKPGKAPKLLIYHTSRLQSGVPSRFSGSGSGTDFTLTISSLQPEDFATYYCQQGFSNPWTFGQGTKVEIK
notes: IgG2
B8: IL1RL1-252 (antibody, V domains shown)
VH: EVQLLESGGGLVQPGGSLRLSCAASGFTFSRYHIEWVRQAPGKGLEWVSAISGRGDNTYYADSVKGRFTISRDNSKNTLYLQMNSLRAEDTAVYYCARHKGLQPLDYWGQGTLVTVSS
VL: DIQMTQSPSSLSASVGDRVTITCRASQDVSSGVAWYQQKPGKAPKLLIYPKHNRPPGVPSRFSGSGSGTDFTLTISSLQPEDFATYYCSARSVRGNPHVLFGQGTKVEIK
notes: IgG2
B9: IL1RL1-189 (antibody, V domains shown)
VH: EVQLLESGGGLVQPGGSLRLSCAASGFTFSSYFMSWVRQAPGKGLEWVSAISREGRATYYADSVKGRFTISRDNSKNTLYLQMNSLRAEDTAVYYCARIRVGPSGGAFDYWGQGTLVTVSS
VL: DIQMTQSPSSLSASVGDRVTITCKASDHIGKFLTWYQQKPGKAPKLLIYGRNKRPSGVPSRFSGSGSGTDFTLTISSLQPEDFATYYCQQSYSTPTFGQGTKVEIK
notes: IgG2
B10: IL1RL1-262 (antibody, V domains shown)
VH: EVQLLESGGGLVQPGGSLRLSCAASGFTFSRYAMNWVRQAPGKGLEWVSAISGSGGNTYYADSVKGRFTISRDNSKNTLYLQMNSLRAEDTAVYYCARVWRNSLDYWGQGTLVTVSS
VL: DIQMTQSPSSLSASVGDRVTITCSGDRLGEKYVSWYQQKPGKAPKLLIYENNNRPSGVPSRFSGSGSGTDFTLTISSLQPEDFATYYCVARAVRGNPHVLFGQGTKVEIK
notes: IgG2
B11: IL1RL1-86 (Fc fusion, not shown: a dimerising Fc or GST)
VHH: EVQLVESGGGLVQPGGSLRLSCAASGGTFSTYAMGWFRQAPGKEREWVASISTSGSTITPYADSVKGRFTISADNSKNTAYLQMNSLKPEDTAVYYCAAIAYEEGVYRWDWGQGTLVTVSS
notes: VHH-Fc on IgG2 Fc
B12: IL1RL1-52 (Fc fusion, not shown: a dimerising Fc or GST)
VHH: B11 VHH with F29I
notes: VHH-Fc on IgG2 Fc
B13: IL1RL1-18 (Fc fusion, not shown: a dimerising Fc or GST)
VHH: B11 VHH with G27V, F29L, S30D, T31L, Y102H
notes: VHH-Fc on IgG2 Fc
B14: IL1RL1-2 (Fc fusion, not shown: a dimerising Fc or GST)
VHH: B11 VHH with T31A
notes: VHH-Fc on IgG2 Fc
B15: IL1RL1-256 (antibody, V domains shown)
VH: EVQLLESGGGLVQPGGSLRLSCAASGFTFDRYRMTWVRQAPGKGLEWVSSIGANGAPTYYADSVKGRFTISRDNSKNTLYLQMNSLRAEDTAVYYCARGRLFDYWGQGTLVTVSS
VL: DIQMTQSPSSLSASVGDRVTITCQGASLRNYYASWYQQKPGKAPKLLIYGNNNRPSGVPSRFSGSGSGTDFTLTISSLQPEDFATYYCASRSSKGNPHVLFGQGTKVEIK
notes: IgG2
B16: IL1RL1-257 (antibody, V domains shown)
VH: B15 VH with D30S, R31P, Y32R, T35S, S50A, G52T, A53G, N54S, A56G, P57S
VL: DIQMTQSPSSLSASVGDRVTITCRASQSISGYLNWYQQKPGKAPKLLIYGNNNRPSGVPSRFSGSGSGTDFTLTISSLQPEDFATYYCSQNTHVPYTFGQGTKVEIK
notes: IgG2
B17: IL1RL1-214 (antibody, V domains shown)
VH: EVQLLESGGGLVQPGGSLRLSCAASGFTFNAYPMTWVRQAPGKGLEWVSAISGRGDNTYYADSVKGRFTISRDNSKNTLYLQMNSLRAEDTAVYYCARPPKRGPRFDYWGQGTLVTVSS
VL: DIQMTQSPSSLSASVGDRVTITCKASENVDTYVSWYQQKPGKAPKLLIYGRNKRPSGVPSRFSGSGSGTDFTLTISSLQPEDFATYYCQQGHTLPWTFGQGTKVEIK
notes: IgG2
B18: IL1RL1-270 (antibody, V domains shown)
VH: EVQLLESGGGLVQPGGSLRLSCAASGFTFSRYFMGWVRQAPGKGLEWVSGITRSGSTNYRDSVKGRFTISRDNSKNTLYLQMNSLRAEDTAVYYCAKGPGTRGDYWGQGTLVTVSS
VL: DIQMTQSPSSLSASVGDRVTITCRASQPIGPDLLWYQQKPGKAPKLLIYGASRLQRGVPSRFSGSGSGTDFTLTISSLQPEDFATYYCASRNGWNHVVFGQGTKVEIK
notes: IgG2
B19: IL1RL1-245 (antibody, V domains shown)
VH: EVQLLESGGGLVQPGGSLRLSCAASGFTLSSYAMSWVRQAPGKGLEWVSGITRSGSTNYRDSVKGRFTISRDNSKNTLYLQMNSLRAEDTAVYYCAKFPFTHGKFDYWGQGTLVTVSS
VL: DIQMTQSPSSLSASVGDRVTITCRASQGVRTSLAWYQQKPGKAPKLLIYRASTLASGVPSRFSGSGSGTDFTLTISSLQPEDFATYYCASRSSKGNPHVLFGQGTKVEIK
notes: IgG2
B20: IL1RL1-200 (antibody, V domains shown)
VH: EVQLLESGGGLVQPGGSLRLSCAASGFTFKSYGMHWVRQAPGKGLEWVSLIPHTGNPTYYADSVKGRFTISRDNSKNTLYLQMNSLRAEDTAVYYCARGGPRGNKYYFDYWGQGTLVTVSS
VL: DIQMTQSPSSLSASVGDRVTITCSGDKLGHTYTSWYQQKPGKAPKLLIYRKSNRPSGVPSRFSGSGSGTDFTLTISSLQPEDFATYYCYSRDRSGNHLGMFGQGTKVEIK
notes: IgG2
B21: IL1RL1-230 (antibody, V domains shown)
VH: EVQLLESGGGLVQPGGSLRLSCAASGFTFSGYIMAWVRQAPGKGLEWVSSISSTGFKTYYADSVKGRFTISRDNSKNTLYLQMNSLRAEDTAVYYCAKGNSRYVFDYWGQGTLVTVSS
VL: DIQMTQSPSSLSASVGDRVTITCKASDHIGKFLTWYQQKPGKAPKLLIYGRNKRPSGVPSRFSGSGSGTDFTLTISSLQPEDFATYYCNSRDTSGLHYVFGQGTKVEIK
notes: IgG2

Biological target: T1, IL1RL1 over-expressed on Expi293 cells
Assay: flow cytometry, 100 nM antibody, over-expressing Expi293 / parent cells
Description: All incubations and washes were in buffer containing PBS+1% BSA. MFI Ratio is defined by the mean fluorescence intensity (MFI) of the cytokine over-expressing Expi293 cell over the Expi293 parent cell. […] EC50 was calculated in GraphPad Prism.

100 nM FACS (MFI Ratio) | Binder
0.51 MFI ratio | B1
0.85 MFI ratio | B2
1.93 MFI ratio | B3
660 MFI ratio | B4
0.55 MFI ratio | B5
1 MFI ratio | B6
1.62 MFI ratio | B7
0.58 MFI ratio | B8
7.46 MFI ratio | B9
6.04 MFI ratio | B10
204 MFI ratio | B11
225 MFI ratio | B12
277 MFI ratio | B13
277 MFI ratio | B14
0.6 MFI ratio | B15
1.38 MFI ratio | B16
1.34 MFI ratio | B17
0.31 MFI ratio | B18
1.28 MFI ratio | B19
1 MFI ratio | B20
1.43 MFI ratio | B21

Biological target: T2, IL1RL1
Assay: SPR (Carterra LSA), antibody amine-coupled, 1:1 model;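 further: HC30M sensor chip at 25 °C in HBS-TE, analyte at rising concentrations in buffer containing 0.5 mg/mL BSA, 5 min association then 15 min dissociation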

Kd | koff | kon | Binder
0.584 nM | 0.000101 s⁻¹ | 172000 M⁻¹ s⁻¹ | B4
≤ 0.0762 nM | ≤ 1e-05 s⁻¹ | 131000 M⁻¹ s⁻¹ | B11
0.121 nM | 3.48e-05 s⁻¹ | 288000 M⁻¹ s⁻¹ | B12
0.312 nM | 3.95e-05 s⁻¹ | 126000 M⁻¹ s⁻¹ | B13
0.265 nM | 3.11e-05 s⁻¹ | 118000 M⁻¹ s⁻¹ | B14
